Starred links: 1 amine or outer side, 2 acyl side, 3 side chain; linkers in the order of their positions; H or OH if unused. Positions of bridges follow the written chain, without caps; N, C: chain ends. Non-standard residues stand in square brackets, D forms with d. Primed or numbered codes have the meaning given here. B5(10) = 2-amino-2-(pent-4-en-1-yl)hept-6-enoic acid, bis(4-pentenyl)glycine, stitching residue bearing both staples, C=CCCCC(CCCC=C)(N[*:1])C(=O)[*:2]; PyrS2″ = (S)-3-amino-1-((pent-4-en-1-yloxy)carbonyl)pyrrolidine-3-carboxylic acid (stapling residue), C=CCCCOC(=O)N1CC[C@@](N[*:1])(C(=O)[*:2])C1; B5(4) = 2,2-bis(4-pentenyl)glycine = 2-amino-2-(pent-4-en-1-yl)hept-6-enoic acid (stitching residue), C=CCCCC(CCCC=C)(N[*:1])C(=O)[*:2]; TfeGA = (S)-2-amino-3-((carboxymethyl)(2,2,2-trifluoroethyl)amino)propanoic acid, O=C([C@H](CN(CC(=O)[*:3])CC(F)(F)F)N[*:1])[*:2]; PyrS2 = (S)-3-amino-1-((pent-4-en-1-yloxy)carbonyl)pyrrolidine-3-carboxylic acid, C=CCCCOC(=O)N1CC[C@@](N[*:1])(C(=O)[*:2])C1; B5(3) = 2,2-bis(4-pentenyl)glycine (stitching residue), C=CCCCC(CCCC=C)(N[*:1])C(=O)[*:2]; Phe(2-Cl) = N[C@@H](Cc1ccccc1Cl)C(=O)O; Bta = N[C@@H](Cc1csc2ccccc12)C(=O)O; αAllylPro = C=CC[C@@]1(C(=O)O)CCCN1; tBuAla = CC(C)(C)C[C@H](N)C(=O)O
Key:
[1] = target: T1, beta-catenin in DLD1 TCF/LEF luciferase reporter cells (UniProt P35222 1-781); assay: cell-based or functional assay
T1 sequence (looked up): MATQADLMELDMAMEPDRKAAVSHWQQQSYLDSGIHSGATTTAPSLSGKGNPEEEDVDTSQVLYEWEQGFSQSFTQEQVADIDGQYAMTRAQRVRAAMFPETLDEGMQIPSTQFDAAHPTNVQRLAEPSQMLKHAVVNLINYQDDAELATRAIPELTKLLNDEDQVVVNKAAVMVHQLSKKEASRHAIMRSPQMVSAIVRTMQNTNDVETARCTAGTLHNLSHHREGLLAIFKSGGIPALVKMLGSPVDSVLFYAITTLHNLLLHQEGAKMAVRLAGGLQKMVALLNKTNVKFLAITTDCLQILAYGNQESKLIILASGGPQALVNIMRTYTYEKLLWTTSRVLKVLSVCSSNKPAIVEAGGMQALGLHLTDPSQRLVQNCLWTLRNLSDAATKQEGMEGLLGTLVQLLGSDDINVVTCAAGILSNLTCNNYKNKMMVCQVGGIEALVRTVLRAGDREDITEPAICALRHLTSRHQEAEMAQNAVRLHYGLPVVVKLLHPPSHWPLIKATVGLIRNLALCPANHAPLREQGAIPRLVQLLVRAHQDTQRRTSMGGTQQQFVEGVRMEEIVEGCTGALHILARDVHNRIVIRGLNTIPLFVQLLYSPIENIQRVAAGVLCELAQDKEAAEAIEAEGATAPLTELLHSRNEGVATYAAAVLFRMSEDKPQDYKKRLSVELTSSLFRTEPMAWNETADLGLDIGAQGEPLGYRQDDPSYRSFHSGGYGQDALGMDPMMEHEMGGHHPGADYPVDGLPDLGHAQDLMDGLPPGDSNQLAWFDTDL

[2] = target: T2, beta-catenin in DLD1 TCF/LEF luciferase reporter cells (Homo sapiens (Human), UniProt P35222 1-781); assay: cell-based or functional assay
T2 sequence: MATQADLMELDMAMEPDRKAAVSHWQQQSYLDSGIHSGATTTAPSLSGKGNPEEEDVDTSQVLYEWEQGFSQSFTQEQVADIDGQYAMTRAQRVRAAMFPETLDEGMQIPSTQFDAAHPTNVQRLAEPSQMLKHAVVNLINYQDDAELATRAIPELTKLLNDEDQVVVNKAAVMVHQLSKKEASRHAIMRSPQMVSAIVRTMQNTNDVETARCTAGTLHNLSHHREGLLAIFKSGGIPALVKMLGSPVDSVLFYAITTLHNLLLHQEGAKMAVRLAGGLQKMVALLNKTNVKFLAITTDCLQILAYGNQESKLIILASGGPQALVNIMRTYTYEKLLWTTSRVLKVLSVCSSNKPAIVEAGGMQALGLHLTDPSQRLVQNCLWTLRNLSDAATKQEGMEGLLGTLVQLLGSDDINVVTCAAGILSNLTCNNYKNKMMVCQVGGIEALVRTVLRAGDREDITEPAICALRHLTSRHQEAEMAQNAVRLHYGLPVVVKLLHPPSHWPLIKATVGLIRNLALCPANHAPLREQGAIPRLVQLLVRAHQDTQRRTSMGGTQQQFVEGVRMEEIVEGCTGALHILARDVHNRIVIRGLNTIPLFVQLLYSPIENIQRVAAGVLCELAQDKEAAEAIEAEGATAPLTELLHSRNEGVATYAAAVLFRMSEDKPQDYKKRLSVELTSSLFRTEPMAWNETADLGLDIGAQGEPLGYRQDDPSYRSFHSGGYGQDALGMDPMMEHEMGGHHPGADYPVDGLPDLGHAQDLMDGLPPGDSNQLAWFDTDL

[3] = target: T3, full-length beta-Catenin (Uniprot ID P35222) (Homo sapiens (Human), UniProt P35222 1-781); assay: fluorescence polarization competition; full-length beta-catenin, competitor 5FAM-TCF4(10-53) probe
T3 construct: also called bCat; B-Catenin
T3 sequence: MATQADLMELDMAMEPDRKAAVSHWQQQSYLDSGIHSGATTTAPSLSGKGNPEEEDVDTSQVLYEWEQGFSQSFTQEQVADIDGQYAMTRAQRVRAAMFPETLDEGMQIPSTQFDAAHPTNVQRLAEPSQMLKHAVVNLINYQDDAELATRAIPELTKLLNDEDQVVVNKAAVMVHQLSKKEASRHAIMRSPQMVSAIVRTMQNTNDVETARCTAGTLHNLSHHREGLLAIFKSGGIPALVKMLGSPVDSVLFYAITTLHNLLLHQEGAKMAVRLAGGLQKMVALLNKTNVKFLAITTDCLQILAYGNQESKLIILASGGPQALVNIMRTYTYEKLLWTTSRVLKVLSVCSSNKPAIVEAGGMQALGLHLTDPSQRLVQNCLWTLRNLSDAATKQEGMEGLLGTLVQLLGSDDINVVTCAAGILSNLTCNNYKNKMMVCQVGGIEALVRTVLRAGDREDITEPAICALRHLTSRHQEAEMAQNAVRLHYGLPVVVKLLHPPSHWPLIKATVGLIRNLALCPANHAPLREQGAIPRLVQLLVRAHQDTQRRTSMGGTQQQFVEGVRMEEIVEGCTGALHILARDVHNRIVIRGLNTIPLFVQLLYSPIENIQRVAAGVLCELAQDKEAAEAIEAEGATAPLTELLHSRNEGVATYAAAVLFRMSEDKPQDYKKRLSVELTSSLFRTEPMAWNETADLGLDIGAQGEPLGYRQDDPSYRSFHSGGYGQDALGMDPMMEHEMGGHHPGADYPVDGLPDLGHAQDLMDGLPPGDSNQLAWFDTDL
Outline: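 Plate incubated 60 minutes at 20° C. protected from light before reading. Concentrations given are final.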

B-cat-Halo = target: T4, B-cat-Halo (UniProt P35222 1-781, HaloTag NanoBRET 618 Ligand bound in the assay); assay: NanoBRET Abs IC50 in HEK293 cells; B-cat-Halo, competitor TCF4-Luc
T4 construct: Transfected into HEK293 cells for the NanoBRET assay; also called beta-catenin HaloTag NanoBRET construct; not shown: HaloTag
T4 sequence (looked up): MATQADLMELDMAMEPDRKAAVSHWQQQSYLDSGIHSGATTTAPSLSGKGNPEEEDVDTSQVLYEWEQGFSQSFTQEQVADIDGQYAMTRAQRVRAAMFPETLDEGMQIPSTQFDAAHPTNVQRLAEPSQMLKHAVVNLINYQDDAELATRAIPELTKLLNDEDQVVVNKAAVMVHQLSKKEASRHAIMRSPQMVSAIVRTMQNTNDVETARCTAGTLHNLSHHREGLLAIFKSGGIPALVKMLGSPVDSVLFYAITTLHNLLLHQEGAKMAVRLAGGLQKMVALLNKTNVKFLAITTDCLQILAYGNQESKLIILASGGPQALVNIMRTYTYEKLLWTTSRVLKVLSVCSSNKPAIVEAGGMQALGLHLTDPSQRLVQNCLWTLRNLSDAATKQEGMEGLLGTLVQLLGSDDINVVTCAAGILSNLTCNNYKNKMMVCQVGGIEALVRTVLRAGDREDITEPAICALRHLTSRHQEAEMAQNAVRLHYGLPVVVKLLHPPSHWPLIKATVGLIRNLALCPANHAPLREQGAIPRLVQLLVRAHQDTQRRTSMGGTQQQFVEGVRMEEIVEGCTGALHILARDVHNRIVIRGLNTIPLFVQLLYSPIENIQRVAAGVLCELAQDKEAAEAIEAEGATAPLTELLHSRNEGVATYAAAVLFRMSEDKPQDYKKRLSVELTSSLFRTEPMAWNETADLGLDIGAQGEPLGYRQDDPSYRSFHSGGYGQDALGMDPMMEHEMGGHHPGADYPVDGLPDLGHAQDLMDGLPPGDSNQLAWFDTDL

[4] = target: T5, full-length beta-Catenin (Uniprot ID P35222) (Homo sapiens (Human), UniProt P35222 1-781); assay: fluorescence polarization competition; full-length beta-catenin + 5FAM-TCF4(10-53) probe
T5 construct: also called bCat; B-Catenin
T5 sequence: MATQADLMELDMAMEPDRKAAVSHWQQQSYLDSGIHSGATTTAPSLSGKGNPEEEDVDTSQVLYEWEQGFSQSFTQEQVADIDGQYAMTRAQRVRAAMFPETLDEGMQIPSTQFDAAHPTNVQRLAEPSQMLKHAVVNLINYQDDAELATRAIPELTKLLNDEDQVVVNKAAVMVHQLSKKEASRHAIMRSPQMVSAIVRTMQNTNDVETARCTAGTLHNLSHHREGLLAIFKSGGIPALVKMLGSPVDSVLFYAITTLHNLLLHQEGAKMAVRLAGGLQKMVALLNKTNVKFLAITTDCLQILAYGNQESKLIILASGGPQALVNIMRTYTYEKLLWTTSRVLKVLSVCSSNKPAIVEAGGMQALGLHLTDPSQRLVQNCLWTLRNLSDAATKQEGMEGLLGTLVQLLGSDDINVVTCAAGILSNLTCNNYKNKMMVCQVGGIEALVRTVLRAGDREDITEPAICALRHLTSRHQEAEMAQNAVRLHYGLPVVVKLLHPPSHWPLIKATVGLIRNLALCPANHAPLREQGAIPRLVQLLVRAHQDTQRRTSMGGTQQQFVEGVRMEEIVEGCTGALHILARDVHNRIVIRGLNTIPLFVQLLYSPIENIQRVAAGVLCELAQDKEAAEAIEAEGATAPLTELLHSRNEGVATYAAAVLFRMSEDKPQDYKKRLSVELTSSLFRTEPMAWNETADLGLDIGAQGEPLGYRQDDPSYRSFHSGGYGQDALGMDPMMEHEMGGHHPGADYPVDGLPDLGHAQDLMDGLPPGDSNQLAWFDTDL
Experimental: The plate was incubated protected from light for 60 minutes at 20° C. prior to read. Reads were performed on a CLARIOstar plate reader (BMG Labtech) in duplicate, and data were fitted to a 1:1 binding model with hill slope using an in-house script. All provided concentrations are final concentrations.

Binder: Ac-[αAllylPro]D[tBuAla][B5(3)]D[TfeGA]AAFF[PyrS2″]F[Bta]Q-NH2 (staple 1-4, 4-11) [I-988]
- DLD1 reporter assay Abs IC50 [1]: 5.2 µM

Binder: Ac-[αAllylPro]D[tBuAla][B5(4)]DDAAFT[PyrS2″][Phe(2-Cl)][Bta]S-NHEt (staple 1-4, 4-11) [I-1244]
- DLD1 4% Abs IC50 [2]: 15.9 µM

B1: I-749 (peptide)
peptide: XDLXDEAAFNXFXT
modifications: not fully specified; N-terminal Ac; C-terminal NH2; PL3 at 1, B5 at 4, S8 at 11, BztA at 13; stapled PL3-B5 and B5-S8 by olefin metathesis
notes: Stapled peptide; also called Ac-PL3-Asp-Leu-B5-Asp-Glu-Ala-Ala-Phe-Asn-S8-Phe-BztA-Thr-NH2
- IC50 [3]: 0.04 µM
- IC50 (B-cat-Halo): 9 µM

B2: I-1295 (peptide)
peptide: Ac-[αAllylPro]DA[B5(10)]NTAAFL[PyrS2]F[Bta]Q-NH2
modifications: staple 1-4, 4-11; not fully specified; printed as Ac-PL3-Asp-Ala-B5-Asn-Thr-Ala-Ala-Phe-Leu-PyrS2-Phe-BztA-Gln-NH2
- EC50 [4]: 10 µM
